Legend:
[1] = molecular target: ORF74-ST/A (Kaposi's sarcoma-associated herpesvirus (KSHV)) (UniProt Q98146)
[2] = molecular target: ORF74-ST/A (Kaposi's sarcoma-associated herpesvirus (KSHV)) (UniProt Q98146); test: radioligand binding; whole transfected HEK293T cells, 100 pM ^125I-CXCL10 with increasing unlabeled CXCL10, 3h at 4°C, 50 mM HEPES pH 7.4, 1 mM CaCl2, 5 mM MgCl2, 0.5% BSA; washes with 0.5 M NaCl; Ki from IC50 by Cheng and Prusoff
^125I-CXCL8 = test: radioligand binding (125I-CXCL8 homologous competition) on intact HEK293T cells; details: point at the lowest unlabeled CXCL8 concentration, log [CXCL8] = -11 M; parent: est. 100; read off a plot

CXCL8 (ligand)
PLC activation (InsP accumulation) in HEK293T, pEC50 [1]: > 7

CXCL10 (from UniProt P02778 22-98) (ligand)
pKi [2]: 8.4
inhibition of constitutive PLC activation (InsP accumulation) in HEK293T, pEC50 [1]: 8

WT-ORF74 (from UniProt Q98146) S315A; S319A; S331A; S335A; S338A; T341A; T342A
percent of parent (% of specific binding of WT-ORF74) (^125I-CXCL8): 3
